Laboratory results from US20250270328A1 (BRIGHAM AND WOMEN S HOSPITAL, published 2025).
Changes are numbered by the printed parent chain.

T1: human KLRB1 expressed on CHO-K1 cells (CHO-hum-KLRB1) (human, UniProt Q12918 1-225)
T1 sequence: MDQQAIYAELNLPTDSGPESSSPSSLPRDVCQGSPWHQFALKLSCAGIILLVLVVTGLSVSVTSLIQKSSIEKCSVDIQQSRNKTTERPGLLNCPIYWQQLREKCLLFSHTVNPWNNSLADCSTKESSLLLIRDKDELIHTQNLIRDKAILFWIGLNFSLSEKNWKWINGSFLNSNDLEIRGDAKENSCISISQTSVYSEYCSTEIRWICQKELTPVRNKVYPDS

T2: human KLRB1 protein extracellular domain (ECD) (human, UniProt Q12918 67-225)
T2 construct: range 67-225; The ELISA and SPR text says only 'human KLRB1 ECD'; also called human KLRB1 ECD; CD161
T2 sequence (looked up): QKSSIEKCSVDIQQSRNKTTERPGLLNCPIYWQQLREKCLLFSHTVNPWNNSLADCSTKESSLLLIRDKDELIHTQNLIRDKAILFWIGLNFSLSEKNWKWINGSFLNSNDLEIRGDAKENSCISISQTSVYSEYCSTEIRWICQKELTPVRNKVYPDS

B1: 10A3D6hum2.2-afuc (afucosylated 10A3D6hum2.2) (antibody, human IgG1, kappa, V domains shown)
VH: QVQLVQSGAEVKKPGASVKVSCKASGYSFTGYTMNWVRQAPGQNLEWIGLINPNTGGTYYNQKFKDRVTLTVDTSISTAYMELSRLRSDDTAVYYCARLGDNYRGYFDSWGQGTTVTVSS
VL: DIQLTQSPSFLSASVGDRVTITCKASQDVGTAVVWYQQKPGKAPKLLIDWASIRHTGVPSRFSGSGSGTEFTLTISSLQPEDFADYFCQQYSTYLYTFGGGTKLEIKR
modifications: Fc N-glycan afucosylated (produced in FUT8 knockout cells). The amino-acid letters are unchanged from 10A3D6hum2.2.
B2: 10A3D6-hIgG1k (mouse/human chimeric antibody with 10A3D6 variable regions and human IgG1-kappa constant regions) (antibody)
heavy: not shown
light: DIVMTQSHKFMSTSVGDRVNITCKASQDVGTAVVWYQQTPGQSPKVLIDWASIRHTGVPDRFTGSGSGTDFTLTISSVQSEDLADYFCQQYSTYLYTFGGGTKLEIKRTVAAPSVFIFPPSDEQLKSGTASVVCLLNNFYPREAKVQWKVDNALQSGNSQESVTEQDSKDSTYSLSSTLTLSKADYEKHKVYACEVTHQGLSSPVTKSFNRGEC
notes: also called 10A3D6-chimeric; 10A3D6-hIgGlk; copies: 2 + 2
B3: 10A3D6C109Chum2.5 (antibody, V domains shown)
VH: B1 VH with S109C
VL: EIVMTQSPATLSVSPGERATLSCKASQDVGTAVVWYQQKPGQAPRLLIDWASIRHTGIPARFSGSGSGTEFTLTISSLQSEDFAVYYCQQYSTYLYTFGGGTKVEIK
notes: Humanized variant of 10A3D6 made by CDR grafting
B4: 10A3D6hum1.2 (antibody, V domains shown)
VH: B1 VH with N44G, I48M, L70M, V72R
VL: B1 VL
modifications: Fluorescently labelled in the competition assay; dye and attachment site not stated.
notes: Humanized antibody; also called 103AD6hum1.2; copies: 2 + 2
B5: 10A3D6C109Chum3.5 (antibody, V domains shown)
VH: B1 VH with P41H, S109C
VL: B3 VL
notes: as for B3
B6: 10A3D6hum2.2 (antibody, human IgG1, kappa, V domains shown)
VH: B1 VH
VL: B1 VL
notes: copies: 2 + 2
B7: 10A3D6C109Chum5.4 (antibody, V domains shown)
VH: B1 VH with I48M, A92V, S109C, T115L
VL: DIQLTQSPSFLSASVGDRVTITCKASQDVGTAVVWYQQTPGKAPKLLIDWASIRHTGVPDRFSGSGSGTEFTLTISSLQPEDFADYFCQQYSTYLYTFGGGTKLEIK
notes: as for B3
B8: 10A3D6C109Chum4.5 (antibody, V domains shown)
VH: B1 VH with P41H, V68A, S109C
VL: B3 VL
notes: as for B3
B9: 10A3D6hum1.5 (antibody, V domains shown)
VH: B1 VH with N44G, I48M, L70M, V72R
VL: B3 VL
notes: Humanized antibody
B10: 10A3D6C109Chum5.5 (antibody, V domains shown)
VH: B1 VH with I48M, A92V, S109C, T115L
VL: B3 VL
notes: as for B3
B11: 10A3D6C109Chum1.5 (antibody, V domains shown)
VH: B1 VH with N44G, I48M, L70M, V72R, S109C
VL: B3 VL
notes: as for B3

target: T1, human KLRB1 expressed on CHO-K1 cells …; experiment: cell-based or functional assay

| Binder | ADCC target cell killing EC50 (flow cytometry, human NK cells) [nM] |
| --- | --- |
| B1 | 0.01 |

target: T2, human KLRB1 protein extracellular …; experiment: SPR, human KLRB1 ECD; format not stated
Protocol: The chimeric antibody 10A3D6-hIgGlk (a mouse/human chimeric antibody with 10A3D6 variable regions and human IgG1-kappa constant regions), chimeric mutated variants (10A3D6C109S, 10A3D6C109F, and 10A3D6C109V), and humanized variants of 10A3D6 created by CDR grafting (Almagro et al. 2008) were assayed for binding against human KLRB1 extracellular domain (ECD) via surface plasma resonance (SPR).

| Kd [nM] | koff [s⁻¹] | kon [M⁻¹ s⁻¹] | Binder |
| --- | --- | --- | --- |
| 0.172 | 0.000191 | 1.11e+06 | B2 |
| 0.11 | 9.49e-05 | 861000 | B3 |
| 0.147 | 0.000183 | 1.24e+06 | B4 |
| 0.144 | 0.000114 | 792000 | B5 |
| 0.131 | 0.000139 | 1.07e+06 | B6 |
| 0.143 | 0.000133 | 930000 | B7 |
| 0.127 | 0.000107 | 843000 | B8 |
| 0.111 | 0.000178 | 1.6e+06 | B9 |
| 0.17 | 0.000139 | 816000 | B10 |
| 0.0881 | 9e-05 | 1.02e+06 | B11 |
